Test results from the supplement of paper PMC10126150.
± gives the standard deviation of the averaged measurements.

test system: ATP; assay: switch fluorescence ratio, 500 uM ATP over buffer (Cy3 cluster intensity, sum of 5 cycles each) (fold (ratio)); higher = stronger signal-on switching upon ATP binding; sequences stand for … in TCGTCGGCAGCGTCAGATGTGTATAAGAGACAGTTTTTTTTTTTTTTTTTTTTTTTTT…TC; conditions: aptamer strand: ATP DNA aptamer (quencher-CACCTGGGGGAGTATTGCGGAGGAAGG + anchor), 100 nM annealed; ATP concentration: 500 uM
Summary of the method: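 Values give the fluorescence ratio for each switch-domain sequence, averaged from per-cluster ratios of summed target-cycle to summed buffer-cycle Cy3 intensity. The Cy3-labelled switching-strand clusters sat on a modified Illumina MiSeq flow-cell, were annealed to 100 nM quencher-labelled ATP aptamer, and were imaged in selection buffer, then after 15 min with 500 uM ATP at 22 °C. Five cycles ran with NaOH stripping and re-annealing between them, and clusters outside 100-1000 RFU were excluded.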
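Further: ATP exposure 15 min at 22 °C before imaging.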

| Sequence | switch fluorescence ratio |
| --- | --- |
| ATTTTCATAC | 1.08 ± 0.026 |
| TTTCGGTTGT | 1 ± 0.022 |
| ATAACACAGG | 1.279 ± 0.0016 |
| TAAGACAAAG | 0.992 ± 0.053 |
| CTTTAACGTT | 0.981 ± 0.0073 |
| TGAGGGAGGC | 1.06 ± 0.06 |
| GATTACTACC | 1.21 ± 0.04 |
| GGGGGTTACC | 0.988 ± 0.02 |
| TAGTGTCTAG | 0.97 ± 0.07 |
| AAGAATATGT | 0.9756 ± 0.008 |
| CATAGCGTTA | 1.03 ± 0.011 |
| CATTCGTTTG | 0.96 ± 0.0097 |
| TCTCTGGTTA | 1.01 ± 0.018 |
| TAATTAGTTA | 0.992 ± 0.025 |
| GTATTTCGGT | 0.972 ± 0.031 |
| ATGCAGGCGG | 0.9811 ± 0.001 |
| AAAGTAGGCT | 1.01 ± 0.053 |
| TCGAATATTT | 1.02 ± 0.073 |
| CAATTTAATA | 1.01 ± 0.019 |
| TTTTGAGTGA | 0.954 ± 0.041 |
| TTTTATCTTG | 1.03 ± 0.017 |
| TGGGAACACT | 1.01 ± 0.033 |
| TAAGTTGAGT | 1.01 ± 0.0093 |
| GAGTTATTTA | 0.982 ± 0.027 |
| ACTGTTCAGC | 0.9948 ± 0.0062 |

| Sequence | switch fluorescence ratio |
| --- | --- |
| GAGCGCCGGG | 1.01 ± 0.017 |
| GGTGCGCATG | 0.994 ± 0.011 |
| CCCGGGTGAT | 4 ± 0.3 |
| TATTGCTTCA | 1.03 ± 0.016 |
| CCAGCTTCTG | 1 ± 0.065 |
| CAGGAACTTT | 0.995 ± 0.0012 |
| AGGTTGTGGC | 0.992 ± 0.033 |
| ATTTTGGACC | 1 ± 0.021 |
| AGGAAGGTGT | 1.13 ± 0.2 |
| AAGGGGTTCA | 0.991 ± 0.03 |
| GACGCTAAGG | 1.094 ± 0.0069 |
| TTAGCAGCTG | 1 ± 0.04 |
| TTTATGGAGG | 0.991 ± 0.02 |
| GCTTGTGCAT | 0.989 ± 0.028 |
| ATGTCAAAAG | 1 ± 0.022 |
| CACCAGAGCT | 1.09 ± 0.026 |
| GGATTGTGAA | 1 ± 0.025 |
| AGAGGGCGGT | 1.02 ± 0.024 |
| TCAAAATTTT | 1.01 ± 0.012 |
| GAATTGGATG | 0.965 ± 0.052 |
| TGTCACAGTT | 1.01 ± 0.013 |
| AATTCGTGCA | 1.03 ± 0.036 |
| TATTGTTTCG | 1.02 ± 0.029 |
| ATTCAGAAGG | 1.01 ± 0.041 |
| ATGATAAATT | 0.963 ± 0.04 |

| Sequence | switch fluorescence ratio |
| --- | --- |
| AGCTTTTTGC | 1.02 ± 0.038 |
| AAGATGGGTG | 0.9968 ± 0.005 |
| AAAGCGGTTA | 1.007 ± 0.006 |
| GTTCTTTGG | 0.9949 ± 0.0077 |
| CGGGGGGATT | 0.997 ± 0.012 |
| TTGGATGAGC | 1.03 ± 0.07 |
| GGTTTCGGGC | 1.03 ± 0.044 |
| ATGGCAATGT | 1.08 ± 0.013 |
| TCATATACGA | 1.09 ± 0.015 |
| TTAATCGTAG | 0.991 ± 0.013 |
| GGGGCCCCTC | 1.04 ± 0.092 |
| CAAAAAGAGT | 1.014 ± 0.009 |
| GCTCGATTGG | 0.9766 ± 0.0057 |
| AGGGGTTAAC | 1.04 ± 0.042 |
| TCGGTTCATT | 0.9962 ± 0.004 |
| GGGGGGTTAG | 0.991 ± 0.029 |
| TTTTAAGTTT | 0.978 ± 0.027 |
| CTGTAGCTGG | 1.53 ± 0.05 |
| GGTCATAGGG | 0.958 ± 0.022 |
| GTGAGGCGGT | 0.968 ± 0.017 |
| GGGATTATAT | 1.02 ± 0.032 |
| GACGACGTGC | 2.33 ± 0.44 |
| GAATGGTTTT | 0.971 ± 0.084 |
| AGATAACTCA | 1.02 ± 0.048 |
| TATAATCCCT | 1.02 ± 0.083 |

| Sequence | switch fluorescence ratio |
| --- | --- |
| ACCGGCGTAG | 1 ± 0.016 |
| GCTGTTCCCG | 1.04 ± 0.071 |
| CATGAAAAAT | 1 ± 0.011 |
| CCATCGCCGG | 1 ± 0.081 |
| CATAGTATGG | 0.9706 ± 0.0029 |
| CAAGGCTCAA | 1 ± 0.0013 |
| GAAGGGGATT | 1.015 ± 0.01 |
| AAAGGGTTGT | 1.009 ± 0.009 |
| TCATATACGC | 1.1 ± 0.011 |
| TTGAGCTTAT | 0.993 ± 0.018 |
| CCCGGCTGGT | 0.9956 ± 0.0095 |
| TTTTCGGTGC | 1.06 ± 0.1 |
| ATGAGGGGTA | 1.01 ± 0.026 |
| GGATTTAGGT | 0.994 ± 0.049 |
| ACCGGGGATT | 1 ± 0.018 |
| ACAGTGGGAG | 1.011 ± 0.003 |
| GCTCAAAGCT | 1.01 ± 0.043 |
| AAGGGGCGCC | 0.999 ± 0.052 |
| GCTCTTGGTT | 1.02 ± 0.045 |
| AGCTTTATTT | 1.06 ± 0.12 |
| GGAATGGGGC | 0.993 ± 0.052 |
| GCTGTTCTTC | 0.985 ± 0.013 |
| AGGGGGTCGG | 1.01 ± 0.03 |
| TTCAGGTCGT | 0.992 ± 0.052 |
| AGGGGCCATT | 1.009 ± 0.0098 |

| Sequence | switch fluorescence ratio |
| --- | --- |
| CGATGTGTGC | 1.17 ± 0.0054 |
| TAGCTATTGT | 0.984 ± 0.012 |
| TTGGCACGAT | 1.012 ± 0.0011 |
| TAACTTTTCG | 1.004 ± 0.0028 |
| TAATGTGGGG | 0.9715 ± 0.0056 |
| AGGGAAATTT | 0.99 ± 0.014 |
| TATTGCATTA | 1.03 ± 0.013 |
| CAGTTTTTTA | 0.983 ± 0.016 |
| TGATTTTATT | 0.974 ± 0.011 |
| GAATGCTCAC | 1.14 ± 0.064 |
| GTCCTTGGTC | 0.982 ± 0.019 |
| GAGTTTATAT | 1.01 ± 0.017 |
| ATTTTGTGAT | 0.994 ± 0.025 |
| TCGGGTGGTG | 0.92 ± 0.16 |
| AATGGGAGGG | 1 ± 0.032 |
| CTGGTATGGA | 0.971 ± 0.065 |
| ATAATACCTT | 1.15 ± 0.094 |
| TGCATGTGTC | 0.99 ± 0.035 |
| TTGGTTGGCG | 0.992 ± 0.041 |
| GGTGTTTCGC | 0.994 ± 0.0095 |
| ACAGGGGCAG | 1.02 ± 0.017 |
| CTGAGGAGAC | 1.05 ± 0.042 |
| CTTGAAGGGA | 0.995 ± 0.029 |
| CGAGGGGGGA | 0.996 ± 0.028 |
| GCGATTAGAG | 1 ± 0.02 |

| Sequence | switch fluorescence ratio |
| --- | --- |
| CGGCAGGGGG | 1.06 ± 0.1 |
| AATTACGTGT | 1.0006 ± 0.00059 |
| AAACCGGGAC | 1.55 ± 0.15 |
| CACGGGGTCC | 1.06 ± 0.069 |
| ACCACATATC | 1.1 ± 0.06 |
| AAAGCTGAAT | 0.992 ± 0.0057 |
| TTGGGGGACA | 1.01 ± 0.014 |
| TCGTGTATGA | 1.036 ± 0.0059 |
| GGTAGGGGCG | 1.03 ± 0.031 |
| TGCGTCAGCC | 1.04 ± 0.12 |
| CGGGAAGGGC | 1.19 ± 0.32 |
| GCAGTGGGTC | 0.995 ± 0.0057 |
| GTTTTAGAGT | 0.989 ± 0.02 |
| TTTATAAAAT | 0.987 ± 0.039 |
| CAGTGCCTGT | 1.01 ± 0.034 |
| GGTGCGCATA | 1.03 ± 0.019 |
| CGAGAGGTGG | 1.04 ± 0.055 |
| TCGATCTGTG | 0.99652 ± 0.00045 |
| AAGGGTTTTT | 0.994 ± 0.025 |
| ATCAAGGGGG | 0.992 ± 0.034 |
| CGTTATACAG | 1.01 ± 0.026 |
| ATGGTTGCAG | 0.9553 ± 0.004 |
| CAGGTGGTGT | 1.11 ± 0.066 |
| GCGGTGACCG | 0.9978 ± 0.0046 |
| GAAATTACAG | 0.994 ± 0.016 |

| Sequence | switch fluorescence ratio |
| --- | --- |
| TCCCGCGGCT | 1.08 ± 0.045 |
| AAAGTGATAT | 1.01 ± 0.028 |
| GGGGGTCACT | 0.993 ± 0.026 |
| TCGATATTTA | 0.982 ± 0.02 |
| ACGGGGGGGG | 1.02 ± 0.048 |
| TTTATAGTAA | 0.98978 ± 0.00052 |
| TATTGTATTC | 1 ± 0.013 |
| TGAGTACCGG | 1.08 ± 0.1 |
| GAGAGTTAAA | 0.976 ± 0.015 |
| AAGATAGGTT | 1.02 ± 0.057 |
| ACATAGTTTT | 0.9994 ± 0.0075 |
| AGGCAAATGC | 1.25 ± 0.1 |
| CGTGCTGGAC | 1.091 ± 0.0065 |
| CCCCGTTTCG | 1.08 ± 0.046 |
| TTTTTTTACA | 0.998 ± 0.01 |
| CAAAAAGAAT | 1.003 ± 0.0048 |
| AAGGAATTTT | 1.05 ± 0.1 |
| AAGGTCGCGT | 0.9906 ± 0.0039 |
| ATGGCGGCGG | 1.01 ± 0.014 |
| ATTTTGTGGA | 0.987 ± 0.015 |
| TTAAGTTATA | 1.018 ± 0.0099 |
| CGACTGCAGT | 1.19 ± 0.014 |
| TTATCATATA | 1.06 ± 0.057 |
| GTGTCCCCTG | 0.981 ± 0.04 |
| TTATTCCTAT | 1.02 ± 0.021 |

| Sequence | switch fluorescence ratio |
| --- | --- |
| ATCAGCTGTG | 1.02 ± 0.024 |
| AAGAAATAAA | 0.9744 ± 0.0095 |
| TGATAGAGCC | 1.01 ± 0.023 |
| AGGGAGCGGC | 1.11 ± 0.035 |
| GCTCCAGGGG | 2.88 ± 2.5 |
| TTATTCGGCT | 1.08 ± 0.05 |
| GGGGCTCACG | 0.985 ± 0.029 |
| GCGACATGAT | 1.025 ± 0.0011 |
| TAGGATTTTT | 1.026 ± 0.0081 |
| CGGGAATGGC | 1.06 ± 0.079 |
| AAGGGGTCTT | 0.981 ± 0.027 |
| TCGTAATTGT | 1.02 ± 0.024 |
| AGGGCCGAT | 0.955 ± 0.046 |
| ATGTGCAGGG | 1.03 ± 0.013 |
| AATGGGGAAG | 0.985 ± 0.018 |
| CGAGGGGACG | 1 ± 0.013 |
| AAACGCTGGT | 1.01 ± 0.0087 |
| GTAATAAGAG | 1.004 ± 0.0063 |
| TCAATTCAGG | 1.01 ± 0.016 |
| ATGTCAAGGA | 0.985 ± 0.042 |
| TCCAAGGTCC | 1.04 ± 0.042 |
| CATAATTTTA | 1.007 ± 0.01 |
| CCCCTTGTGA | 1.72 ± 0.04 |
| ATCGTTCAAT | 0.9983 ± 0.0046 |
| AGTTGTTTAG | 1.01 ± 0.012 |
